B1: Ce-9 (long, 61-mer) (ssRNA)
RNA: GGGCUGAAGGGGUUACUGGGCUGAGCUCAUGGCGAGGCUUCUUAUCUGCCCCGGGGAGGAG
modifications: 2'-F pyrimidines
B2: Ce-10 (long, 61-mer) (ssRNA)
RNA: GGGCUGAAGGGGUUACUGGGCUGAGGUAAUGGCGAGGCUUCUUAUCUGCCCCGGGGAGGAG
modifications: 2'-F pyrimidines
B3: Ce-49 (long, 61-mer) (ssRNA)
RNA: GGGCUGAAGGGGUUACUGGGCUGAGGCCUAACGAAGGCUUCUUAUCUGCCCCGGGGAGGAG
modifications: 2'-F pyrimidines

What was measured:
[1] = target: T1, DNMT1 (Homo sapiens, UniProt P26358 P26358:1-1616); experiment: inhibition; all short sequences stated; details: tags: His-tagged (Active Motif), full-length; GST-tagged version (Active Motif) used for SELEX; label: 3'-biotin; hairpin
[2] = target: T1, DNMT1; experiment: BLI; BLItz, mutR5 background subtracted; details: tags: His-tagged (Active Motif), full-length; GST-tagged version (Active Motif) used for SELEX; label: 3'-biotin (ELONA, pulldown); hairpin
Excerpt: FIG. 4. Affinity and in vivo binding of DNMT1-specific aptamers. a. Analysis of Ce-49 sh and Ce-10 sh binding affinity to DNMT1 assessed by the Blitz system (ForteBIO). The background values obtained with mutR5 used as a negative control were subtracted from the values obtained with the aptamers; REMSA showing stronger Ce-49 sh and Ce-10 sh binding ability to DNMT1 than two alternative secondary structures of the original R5F (R5modified with 2′F-Py). Unrelated RNA and DNA are two […] controls. R01(unable to form stem-loop-like structures) is used as negative control; c. Increasing amount of Ce-49 sh and Ce-10 sh biotinylated aptamers were incubated in the presence or absence of HSA purified protein. No significant difference was detected between the blank control and the aptamers by ELONA. Error bars depict mean±s.d.; d. Aptamer-mediated pull-down. Protein extract from K562 cells were incubated with the biotinylated R5-F, Ce-49 sh and Ce-10-2 sh. Bound proteins were purified on streptavidin beads and immunoblotted with anti-DNMT1 antibodies.
Next, aptamer affinity to DNMT1 was assessed by the Blitz system (ForteBIO).

[3] = target: Human serum albumin (HSA) (Homo sapiens, UniProt P02768 P02768:25-609); experiment: ELONA; no significant binding up to 750 nM; details: label: 3'-biotin (ELONA, pulldown); hairpin
Procedure: (§1) Microtiter High Binding plate (Nunc MaxiSorp) wells were coated with 30 nM of His-tagged DNMT1 (Active Motif) or HSA overnight at 4° C. All subsequent steps were performed at room temperature. After incubation, the plate was washed once with PBS and then blocked each well with 300 μl 3% BSA (AppliChem) in PBS for 2 hours. After two washes, the plate was incubated with 100 μL of 3′-biotinylated aptamers dissolved in PBS for 2 hours. Next, the plate was washed three times and streptavidin-conjugated horseradish peroxidase (HRP) (Sigma Aldrich) was added (1:10000 dilution). After 1-hour incubation, the plate was washed four times and the 3,3′,5,5′-Tetramethylbenzidine (TMB) substrate solution was added. The reaction was stopped with sulfuric acid (H₂SO₄) 0,16 M, forming a yellow reaction product that was read with microplate Reader (Thermo Scientific) at 450 nm.
To check the aptamer specificity, the present disclosure monitored the binding of Ce-49 sh and Ce-10-2 sh to the human serum albumin (HSA), the most enriched plasma protein that can bind, in a nonspecific manner, nucleic acids through its positive charge, thus limiting their use. […] As shown, no significant aptamer binding was measured up to 750 nM concentration. Binding was instead detected when aptamers were incubated with DNMT1 protein (FIG. 7).

[4] = target: T1, DNMT1; experiment: inhibition; in vitro DNMT1 inhibitor screening assay; details: tags: His-tagged (Active Motif), full-length; GST-tagged version (Active Motif) used for SELEX; label: 3'-biotin (ELONA, pulldown); hairpin
Procedure: FIG. 5. Functional activity of the aptamers. (a) Activity of purified DNMT1 protein was analyzed in vitro by DNMT1 inhibitor screening assay in the absence (“-”) or in the presence of indicated aptamers. Results are expressed as percentage relative to the activity of DNMT1 protein alone; b. DNMT1 inhibitor screening assay performed with K-562 nuclear extracts from untreated cells (NT), treated with a sequence unable to bind DNMT1 (control) or transfected with the respective aptamers Ce-10-2 sh and Ce-49 sh. Results are expressed as percentage relative to the activity detected in NT sample; c. expression levels 72 hours upon aptamers transfection; d, e. Cell viability of CML K562 cells (d) or NSCLC Calu-1 and A549 cells (e) transfected with indicated aptamers or Cont. for 72 hours. In (a-d) Error bars depict mean±s.d.; R5-F: R5 sequence modified with 2′F-Py.
As next step, the present disclosure tested aptamer ability to inhibit DNMT1-mediated methylation. As first attempt, the present disclosure performed an in vitro DNMT1 inhibitor screening assay. The activity of DNMT1 purified protein was measured in the absence or in the presence of R5-F or the selected short sequences. […] The functional effects of the best binders (Ce-49 sh and Ce-10-2 sh) was further characterized monitoring the in vivo DNMT1 activity by using cell nuclear extracts from chronic K562 CML cells transfected with the aptamers (FIG. 5b).

[5] = target: DNMT3A (UniProt Q9Y6K1 Q9Y6K1:1-912); experiment: BLI; specificity control
[6] = target: KAT5 (UniProt Q92993 Q92993:1-513); experiment: BLI; specificity control; details: label: 3'-biotin (ELONA, pulldown); hairpin
[7] = target: DNMT3B (UniProt Q9UBC3 Q9UBC3:1-853); experiment: BLI; specificity control
[8] = target: T1, DNMT1; experiment: ELONA; 200 nM aptamer; details: tags: His-tagged (Active Motif), full-length; GST-tagged version (Active Motif) used for SELEX; label: 5'-biotin; hairpin
Procedure: as §1
The present disclosure identified three clusters of sequences with two aptamers (Ce-9 and Ce-10) representing the most enriched ones (FIG. 2a). These two aptamers present two mismatches among them and both had three mutation points compared to R5 (FIG. 2b). These sequences, together with Ce-49 that comes from a different cluster, were tested for the binding to DNMT1 purified protein by ELONA at 200 nM concentration.

[9] = target: T1, DNMT1; experiment: BLI; 100 nM to 2 uM; R2=0.9017; p159 states Kd not measurable; details: tags: His-tagged (Active Motif), full-length; GST-tagged version (Active Motif) used for SELEX; label: 3'-biotin (ELONA, pulldown); hairpin
Procedure: Dose-response binding analyses were also performed with the 2′F-pyrimidine modified R5 (indicated as DNMT1-bait) at concentrations ranging between 100 nM and 2 μM, since no binding was detected at lower concentrations (FIG. 8a). In accordance with previous findings, no binding was detected for the mutR5 sequence which is unable to fold in stem-loop-like structures and used as a negative control (FIG. 8b).

DNMT3A, sequence (Q9Y6K1 whole entry, one chain of several): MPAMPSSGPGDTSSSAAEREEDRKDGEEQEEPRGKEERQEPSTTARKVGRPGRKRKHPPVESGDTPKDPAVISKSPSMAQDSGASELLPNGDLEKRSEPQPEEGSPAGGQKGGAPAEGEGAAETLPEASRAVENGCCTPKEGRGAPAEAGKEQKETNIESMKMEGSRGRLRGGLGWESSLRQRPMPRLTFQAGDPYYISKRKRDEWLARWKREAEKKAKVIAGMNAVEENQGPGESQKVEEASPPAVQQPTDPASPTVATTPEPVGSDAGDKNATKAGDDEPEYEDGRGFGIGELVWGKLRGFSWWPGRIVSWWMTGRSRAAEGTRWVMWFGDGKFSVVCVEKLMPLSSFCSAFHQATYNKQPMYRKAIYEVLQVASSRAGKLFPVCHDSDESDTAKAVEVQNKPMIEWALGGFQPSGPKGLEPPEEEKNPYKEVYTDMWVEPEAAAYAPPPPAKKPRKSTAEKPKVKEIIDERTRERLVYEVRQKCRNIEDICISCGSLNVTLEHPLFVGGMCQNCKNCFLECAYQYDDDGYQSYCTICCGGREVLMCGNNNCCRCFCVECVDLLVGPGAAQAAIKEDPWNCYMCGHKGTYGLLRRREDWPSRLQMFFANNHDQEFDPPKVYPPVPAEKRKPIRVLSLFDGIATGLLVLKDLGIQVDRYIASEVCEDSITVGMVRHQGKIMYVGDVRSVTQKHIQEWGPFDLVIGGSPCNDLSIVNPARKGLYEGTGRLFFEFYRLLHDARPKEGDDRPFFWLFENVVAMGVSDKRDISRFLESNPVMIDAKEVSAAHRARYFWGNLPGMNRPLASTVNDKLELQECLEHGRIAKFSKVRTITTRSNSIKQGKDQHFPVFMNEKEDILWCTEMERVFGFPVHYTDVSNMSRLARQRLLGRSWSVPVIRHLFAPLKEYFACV
T1 sequence (P26358 whole entry, one chain of several): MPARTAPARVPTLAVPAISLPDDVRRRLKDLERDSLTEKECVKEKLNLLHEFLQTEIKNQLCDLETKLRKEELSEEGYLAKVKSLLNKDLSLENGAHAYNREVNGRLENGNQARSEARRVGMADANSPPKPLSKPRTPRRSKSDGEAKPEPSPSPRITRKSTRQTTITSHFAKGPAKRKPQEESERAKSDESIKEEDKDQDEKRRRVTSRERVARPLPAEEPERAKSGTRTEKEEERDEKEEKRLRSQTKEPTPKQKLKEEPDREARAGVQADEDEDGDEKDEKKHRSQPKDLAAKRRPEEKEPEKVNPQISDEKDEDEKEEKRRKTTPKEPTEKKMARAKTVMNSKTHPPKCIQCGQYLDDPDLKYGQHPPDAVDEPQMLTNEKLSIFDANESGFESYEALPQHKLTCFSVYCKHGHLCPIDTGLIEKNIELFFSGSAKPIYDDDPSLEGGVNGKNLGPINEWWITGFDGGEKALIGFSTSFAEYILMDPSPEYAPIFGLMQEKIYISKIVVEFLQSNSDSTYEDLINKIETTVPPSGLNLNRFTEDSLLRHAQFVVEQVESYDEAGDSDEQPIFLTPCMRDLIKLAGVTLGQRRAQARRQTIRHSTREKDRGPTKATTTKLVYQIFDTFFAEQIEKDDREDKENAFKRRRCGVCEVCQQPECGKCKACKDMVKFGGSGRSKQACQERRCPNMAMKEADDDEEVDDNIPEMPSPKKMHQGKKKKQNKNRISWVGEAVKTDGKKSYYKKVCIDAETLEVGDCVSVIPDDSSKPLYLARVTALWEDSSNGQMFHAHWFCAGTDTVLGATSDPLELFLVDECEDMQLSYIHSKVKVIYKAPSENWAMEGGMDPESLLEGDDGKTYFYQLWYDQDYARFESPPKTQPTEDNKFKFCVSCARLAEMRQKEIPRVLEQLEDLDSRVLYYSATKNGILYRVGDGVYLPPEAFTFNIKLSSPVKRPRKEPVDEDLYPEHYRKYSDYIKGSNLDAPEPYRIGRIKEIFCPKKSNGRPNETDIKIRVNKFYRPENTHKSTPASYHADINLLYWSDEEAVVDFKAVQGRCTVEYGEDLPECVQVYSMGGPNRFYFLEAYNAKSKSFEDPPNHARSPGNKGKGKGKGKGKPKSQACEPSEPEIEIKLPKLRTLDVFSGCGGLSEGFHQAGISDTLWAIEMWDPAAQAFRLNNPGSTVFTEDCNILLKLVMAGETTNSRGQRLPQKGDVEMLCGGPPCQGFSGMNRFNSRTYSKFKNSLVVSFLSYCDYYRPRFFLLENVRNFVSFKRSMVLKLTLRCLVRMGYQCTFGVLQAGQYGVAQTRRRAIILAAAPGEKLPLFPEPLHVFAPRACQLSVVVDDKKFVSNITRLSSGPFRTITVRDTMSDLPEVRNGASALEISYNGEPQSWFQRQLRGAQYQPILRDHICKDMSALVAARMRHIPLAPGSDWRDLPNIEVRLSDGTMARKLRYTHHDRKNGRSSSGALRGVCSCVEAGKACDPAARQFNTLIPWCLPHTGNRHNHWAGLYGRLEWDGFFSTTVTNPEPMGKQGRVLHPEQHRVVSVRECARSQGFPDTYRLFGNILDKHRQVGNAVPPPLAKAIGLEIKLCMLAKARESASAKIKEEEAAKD
KAT5, sequence (Q92993 whole entry, one chain of several): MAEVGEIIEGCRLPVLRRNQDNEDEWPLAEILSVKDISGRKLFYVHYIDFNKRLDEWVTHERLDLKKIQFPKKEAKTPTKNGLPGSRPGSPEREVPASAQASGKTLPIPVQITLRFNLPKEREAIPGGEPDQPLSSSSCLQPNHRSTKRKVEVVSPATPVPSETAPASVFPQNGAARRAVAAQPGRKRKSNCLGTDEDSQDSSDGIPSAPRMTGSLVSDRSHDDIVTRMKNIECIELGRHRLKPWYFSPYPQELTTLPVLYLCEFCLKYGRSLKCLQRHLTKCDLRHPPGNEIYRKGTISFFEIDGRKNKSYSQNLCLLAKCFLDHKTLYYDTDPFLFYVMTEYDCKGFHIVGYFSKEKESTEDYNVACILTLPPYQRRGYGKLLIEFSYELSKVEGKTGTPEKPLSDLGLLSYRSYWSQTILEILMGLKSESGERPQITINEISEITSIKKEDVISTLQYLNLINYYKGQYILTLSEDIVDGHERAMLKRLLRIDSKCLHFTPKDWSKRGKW
Human serum albumin (HSA), sequence (P02768 25-609, one chain of several): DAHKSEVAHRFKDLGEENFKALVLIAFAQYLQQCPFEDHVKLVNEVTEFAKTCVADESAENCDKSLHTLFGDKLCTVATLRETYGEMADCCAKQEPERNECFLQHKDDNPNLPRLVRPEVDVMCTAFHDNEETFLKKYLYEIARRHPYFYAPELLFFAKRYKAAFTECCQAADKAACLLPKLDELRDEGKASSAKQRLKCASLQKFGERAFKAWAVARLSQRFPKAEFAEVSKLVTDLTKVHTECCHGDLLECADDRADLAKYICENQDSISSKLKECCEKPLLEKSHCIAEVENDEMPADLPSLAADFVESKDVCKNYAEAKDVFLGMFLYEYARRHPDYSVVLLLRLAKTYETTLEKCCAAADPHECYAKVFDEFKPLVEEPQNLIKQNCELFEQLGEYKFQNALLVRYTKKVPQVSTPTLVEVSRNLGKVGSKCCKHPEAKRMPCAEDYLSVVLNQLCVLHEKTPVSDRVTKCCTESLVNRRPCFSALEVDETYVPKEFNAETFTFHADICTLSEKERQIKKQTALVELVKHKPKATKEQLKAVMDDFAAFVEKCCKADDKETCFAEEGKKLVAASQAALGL

| Binder | activity [1] | activity [4] | binding result [5] | binding result [6] | binding result [7] | binding result [8] | also measured |
| --- | --- | --- | --- | --- | --- | --- | --- |
| CUGAGGUAAUGGCGAGGCUUCU (ssRNA, 2'-F pyrimidines (listed with T in the sequence, described as RNA)) [Ce-10-R5] | ~40 % inhibition | – | – | – | – | – | – |
| CUGAGGCCUAACGAAGGCUUCU (ssRNA, 2'-F pyrimidines) [Ce-49 sh] | – | ~40 % inhibition | no binding | no binding | no binding | – | Kd [2]: ~79 nM; binding result [3]: no binding |
| UUACUGGGCUGAGGUAAUGGCGAGG (ssRNA, 2'-F pyrimidines) [Ce-10-2 sh] | – | ~40 % inhibition | no binding | no binding | no binding | – | Kd [2]: ~66 nM; binding result [3]: no binding |
| UGGGCUGAGCUCAUGGCGAGGCUUC (ssRNA, 2'-F pyrimidines) [Ce-9 sh] | ~40 % inhibition | – | – | – | – | – | – |
| B1 | – | – | – | – | – | binds | – |
| B2 | – | – | – | – | – | binds | – |
| CUGAGGCCUUGGCGAGGCUUCU (ssRNA, 2'-F pyrimidines) [R5-F (DNMT1 bait)] | – | ~40 % inhibition | no binding | no binding | no binding | – | Kd [9]: 600 nM |
| AGGUAAUGGCGAGGCUUCUUAUCUG (ssRNA, 2'-F pyrimidines) [Ce-10-1 sh] | ~40 % inhibition | – | – | – | – | – | – |
| B3 | – | – | – | – | – | binds | – |

From patent publication US20220411799, “DNMT1-Specific Aptamers and Production and Uses Thereof” (National University of Singapore, published 2022)
